Consider ten molecules from patent US9315862B2, “Aptamer regulated nucleic acids and uses thereof” (California Institute of Technology, priority 2004, dated 2016).

Positions count from the first letter of the chain named.

The subject of one data set is theophylline aptamer. Conditions: cited from earlier work.
The test system of another data set is E. coli membrane. Conditions: cited from earlier work.
Data set [1] deals with target mRNA encoding green fluorescent protein (GFP). The data set is described as follows: Protein expression assay: in vivo GFP regulation activity of antiswitches in yeast cells. The format is cell-based, S. cerevisiae. Conditions: for theophylline concentration at which the antiswitch switches GFP expression (inhibits expression / decreases to background levels): theophylline concentration in the media, s8 is an "on" switch; for switching theophylline concentration compared with s1-4: modified lower-affinity theophylline aptamer. As for the experimental part: (§1) Yeast cells were inoculated into synthetic complete media supplemented with the appropriate drop out solution and sugar source (2% raffinose, 1% sucrose) and grown overnight at 30° C. Cells were back diluted into fresh media to an OD600 of 0.1 and grown at 30° C. For assaying antiswitch activity, this fresh media contained appropriate concentrations of theophylline (Sigma), caffeine (Sigma), tetracycline (Sigma), or water (negative control) and expression was induced to a final concentration of 2% galactose, or an equivalent volume of water was added (noninduced control). After growing for three hours, the GFP and Venus levels were assayed on a Safire (Tecan) fluorescent plate reader set to the appropriate excitation (GFP-485 nm; Venus-515 nm) and emission (GFP-515 nm; Venus-[…]) wavelengths. For assaying the antiswitch temporal response, cells were back diluted into fresh media containing 2% galactose. After growing in inducing media for three hours, theophylline or water was added and fluorescence was monitored over time. Fluorescence was normalized for cell number by dividing relative fluorescence units (RFUs) by the OD600 of the culture.
The expression of antiswitches in S. cerevisiae was accomplished using a novel non-coding RNA (ncRNA) expression construct similar to a previously described system (Taira et al., Nucleic Acids Res 19, 5125-30 (1991)) (see FIG. 6). Briefly, the RNA to be expressed is cloned between two hammerhead ribozymes known to self-cleave in vivo (Samarsky et al., Proc Natl Acad Sci USA 96, 6609-14 (1999)). This dual hammerhead construct can be placed under the control of Pol II promoters, and when transcribed the flanking hammerhead ribozymes cleave out from the desired RNA at an efficiency greater than 99% (see FIG. 11). The construct enables creation of ncRNAs with defined 5′ and 3′ ends that are free of potentially interfering flanking sequences. Antiswitch s1 was expressed in this construct under control of a galactose-inducible (GAL1) promoter in yeast cells. A plasmid containing a yeast enhanced GFP (yEGFP) (Mateus et al., Yeast 16, 1313-23 (2000)) under the control of a GAL1 promoter was transformed into the same cells (FIG. 1a).

Data set [2] relates to yellow fluorescent variant protein (Venus) mRNA target. Nature of the data set: Protein expression assay: in vivo Venus (YFP) regulation by antiswitches in yeast cells. It is filed as cell-based, S. cerevisiae. How it is done:
as §1
To illustrate this we introduced into cells two switches each responsive to a different effector molecule and each regulating the protein expression of a different mRNA target: s1, a theophylline responsive GFP regulator, and s9 (see FIG. 9), a tetracycline responsive yellow fluorescent variant protein (Venus) (Nagai et al., Nat Biotechnol 20, 87-90 (2002)) regulator (FIG. 5a). Changes in the targeting capabilities of these molecules were made by swapping out the antisense stem and switching aptamer stem while keeping the remainder of the aptamer module the same. Concurrent expression of these two antiswitches with a plasmid carrying both GFP and Venus allowed for an assay of the simultaneous regulation of gene expression by modular antiswitch design. […] Furthermore, the addition of both ligands decreased expression of both GFP and Venus. […]

Data set [3] in a line: Structural probing of antiswitch by nuclease mapping (RNase T1) with theophylline alone. How it is done: Antiswitch and target sequences were PCR amplified with primers containing a T7 polymerase promoter. RNA was transcribed using Ampliscribe T7 transcription kits (Epicentre) according to manufacture's instructions, except that transcription was carried out at 42° C. and for gel-shift assays antiswitches were radiolabeled by the addition of [α-^32P]-UTP to the transcription mix. The RNA was purified on a 15% denaturing gel, eluted, ethanol precipitated, and resuspended in water. RNA was quantified by OD260 readings. For nuclease mapping, antiswitches were 5′ end labeled with fluorescein (Molecular Probes) by incubating 25 μg of RNA with phosphate reactive label, dissolved in DMSO (Sigma), in labeling buffer (0.12 M methylimidazole pH 9.0, 0.16 M EDAC) for four hours, according to manufacturer's instructions. Labeled RNA was purified by ethanol precipitation and run on a 12% denaturing gel. Fluorescent bands were excised from the gel, eluted into water for three hours at 37° C., and ethanol precipitated.
For nuclease mapping, fluorescein-labeled antiswitch RNA was resuspended in buffer (50 mM Tris-HCl pH 8.0, 100 mM NaCl, 5 mM MgCl2), denatured at 65° C. for three minutes, and allowed to slow cool to room temperature. Antiswitch RNA was incubated with varying concentrations of theophylline at room temperature for 15 minutes. RNase T1 (Ambion) was added to the antiswitch-ligand mixture and incubated at room temperature for 15 minutes. Cleavage products were visualized using laser-induced fluorescence capillary electrophoresis on a P/ACE MDQ machine (Beckman) using a single-stranded nucleic acid analysis kit (Beckman) according to manufacturer's instructions.

The subject of a further data set is GFP mRNA. The data set is described as follows: RNA quantification by qRT-PCR of antiswitch s1 and target mRNA. It is filed as cell-based, S. cerevisiae. How it is done:
Yeast cells were grown according to methods detailed in protein expression assays. Total RNA was extracted using standard acid phenol extraction procedures (Caponigro et al., Mol Cell Biol 13, 5141-8 (1993)). Briefly, cells were pelleted and frozen in liquid nitrogen. Pellets were resuspended in a 50 mM NaOAc (pH 5.2) and 10 mM EDTA buffer. Cells were lysed by the addition of SDS to a final concentration of 1.6% and equal volume of acid phenol. Solutions were kept at 65° C. with intermittent vortexing for 10 minutes. Following cooling on ice, the aqueous phase was extracted and further extraction was carried out with an equal volume of chloroform. RNA samples were ethanol precipitated and resuspended in water. Total RNA was quantified by OD260 readings. RNA samples were DNased (Invitrogen) according to manufacturer's instructions. cDNA was synthesized using gene-specific primers (see FIG. 13) and Superscript III reverse transciptase (Invitrogen) according to the manufacturer's instructions. qRT-PCR was performed on this cDNA using an iCycler iQ system (BioRAD). Samples were prepared using the iQ SYBR green supermix and primer pairs specific for different templates (see FIG. 13) on dilution series of the cDNA, according to the manufacturer's instructions. Data was analyzed using the iCycler iQ software.
(Real-time PCR tracks product formation cycle by cycle.)

Where [4] appears, read: cells with s1 and s9, plasmid carrying both GFP and Venus.
[5] abbreviates: theophylline and tetracycline, cells with s1 and s9.

Consider `Cn1c(=O)c2c(ncn2C)n(C)c1=O` [caffeine], for which, in the data set on theophylline aptamer, the “binding to the theophylline aptamer” value is recorded as “does not bind”.
In the case of `Cn1c(=O)c2[nH]cnc2n(C)c1=O` [theophylline], the Kd (usually the concentration at which binding is half-saturated) on theophylline aptamer was 290 nM. Further, in the data set on E. coli membrane, the “drop in theophylline concentration across the E. coli membrane” value is given as > 1,000 fold.
As to “s8: redesigned "on" antiswitch regulator responsive to theophylline, SEQ ID NO: 8 (ACCUUUAGACAUUUAGAUACCAGCAUCGUCUUGAUGCCCUUGGCAGCUAAAUGUC; RNA, backbone not given here)”, in data set [1], the “theophylline concentration at which the antiswitch switches GFP expression (inhibits expression / decreases to background levels)” value was “around 1 mM”.

B1: s1: theophylline-responsive "off" antiswitch RNA targeting GFP mRNA, SEQ ID NO: 1 (nucleic acid)
chain: ACCUUUAGACAUUUACCUCUAAAUGUCUAAAGGUGAUACCAGCAUCGUCUUGAUGCCCUUGGCAGCACCUUUAG
modifications: chemistry not given here
With B1, the “GFP expression on addition of caffeine” value in data set [1] (caffeine as negative control effector) is recorded as “does not change expression levels”. Also, the “GFP expression on addition of theophylline” value in data set [1] (setting [4]) is reported as “decreased”. Moreover, the “GFP expression on addition of both ligands” value in data set [1] (setting [5]) is listed as “decreased”. In addition, in data set [2] (setting [4]), the “Venus expression on addition of theophylline” value is listed as “unaffected”. In data set [3] (2 mM theophylline), the “antisense domain (peak 1) RNase T1 cleavage” value is “appearance of peak 1” and the “switching aptamer stem (peak 2) RNase T1 cleavage” value was “absent”. In data set [3] (absence of theophylline and 200 μM theophylline), the “switching aptamer stem (peak 2) RNase T1 cleavage” value is “cleaved”. Further, the “relative levels of target transcript” value in the data set with GFP mRNA (cells harboring s1, absence versus high levels of theophylline) is “did not change significantly”. The “steady-state relative level of antiswitch versus target levels” value with GFP mRNA (same promoter for antiswitch and target) was “approximately 1,000 fold”.

B2: s2: destabilized antiswitch construct based on s1 (A21 to C), SEQ ID NO: 2 (nucleic acid)
chain: B1 chain with A22C
modifications: RNA, backbone not given here
On to B2, for which, in data set [1], the “theophylline concentration at which the antiswitch switches GFP expression (inhibits expression / decreases to background levels)” value is “greater than 0.2 mM”.

B3: s4: destabilized antiswitch construct with altered loop sequence (U18 to C), SEQ ID NO: 4 (nucleic acid)
chain: B1 chain with U18C, A22C
modifications: RNA, backbone not given here
In the case of B3, the “theophylline concentration at which the antiswitch switches GFP expression (inhibits expression / decreases to background levels)” value in data set [1] worked out at 0.1 mM.

B4: s9: tetracycline-responsive Venus (YFP) regulator antiswitch, SEQ ID NO: 9 (nucleic acid)
chain: UUGCUCACCAUGGUCCUCACCAUGGUGAGCAAAAAACAUACCAGAUCGCCACCCGCGCUUUAAUCUGGAGAGGUGAAGAAUACGACCACCUUUGCUCAC
modifications: chemistry not given here
As to B4, the “GFP expression on addition of tetracycline” value in data set [1] (setting [4]) is recorded as “not affecting”. Besides, the “Venus expression on addition of tetracycline” value in data set [2] (setting [4]) was “decreased”. Further, the “Venus expression on addition of both ligands” value in data set [2] (setting [5]) is “decreased”.

B5: s5: antiswitch with aptamer domain having 10-fold lower affinity to theophylline than s1, SEQ ID NO: 5 (nucleic acid)
chain: ACCUUUAGACAUUUACCUCUAAAUGUCUAAAGGUGAUACCACGCGAAAGCGCCUUGGCAGCACCUUUAG
modifications: RNA, backbone not given here
Consider B5, for which, in data set [1], the “theophylline concentration required to switch, relative to s1” value is recorded as ~10 fold and the “switching theophylline concentration compared with s1-4” value is “higher theophylline concentrations”. Moreover, the “Kd of aptamer domain for theophylline relative to the aptamer used in s1 (higher Kd / lower affinity)” value in the data set on theophylline aptamer is on record as ~10 fold.

B6: s6: destabilized modified theophylline aptamer antiswitch based on s5, SEQ ID NO: 6 (nucleic acid)
chain: B5 chain with A22C
modifications: RNA, backbone not given here
For B6, the “switching theophylline concentration compared with s1-4” value in data set [1] is listed as “higher theophylline concentrations”.

B7: s3: stabilized antiswitch construct, antisense stem five nucleotides longer than s1, SEQ ID NO: 3 (nucleic acid)
chain: ACCUUUAGACAUUUAAUUAACCUCUUAAUUAAAUGUCUAAAGGUGAAGAUACCAGCAUCGUCUUGAUGCCCUUGGCAGCUUCACCUUUAG
modifications: RNA, backbone not given here
With B7, in data set [1], the “theophylline concentration required to switch, relative to s1” value is recorded as “roughly 1.5 fold”; the “theophylline concentration required to switch, relative to s2” value is listed as ~6 fold; the “theophylline concentration at which the antiswitch switches GFP expression (inhibits expression / decreases to background levels)” value is recorded as “approximately 1.25 mM”. Also, the “decrease (inhibition) of GFP expression from control/full expression levels in the "off" state” value in data set [1] (absence of theophylline) is recorded as 10%.
